Substitutions are numbered along the chain they refer to. In names and notes the source's numbering stands.
T1: FcgRIIaH (human, UniProt P12318 34-217)
T1 construct: extracellular domain; Soluble extracellular domain with C-terminal His tag; also called FcγRIIa H; FcγRIIa type H; not shown: His tag attached to the C terminus
T1 sequence (looked up): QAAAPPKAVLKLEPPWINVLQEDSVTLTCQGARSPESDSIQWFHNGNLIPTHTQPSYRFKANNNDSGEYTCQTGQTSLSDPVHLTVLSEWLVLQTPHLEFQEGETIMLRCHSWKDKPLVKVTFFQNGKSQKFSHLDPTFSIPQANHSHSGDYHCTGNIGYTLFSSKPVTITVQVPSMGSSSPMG

T2: FcgRIIb (human, UniProt P31994 43-217)
T2 construct: extracellular domain; Soluble extracellular domain with C-terminal His tag; also called FcγRIIb; CD32B; not shown: His tag attached to the C terminus
T2 sequence (looked up): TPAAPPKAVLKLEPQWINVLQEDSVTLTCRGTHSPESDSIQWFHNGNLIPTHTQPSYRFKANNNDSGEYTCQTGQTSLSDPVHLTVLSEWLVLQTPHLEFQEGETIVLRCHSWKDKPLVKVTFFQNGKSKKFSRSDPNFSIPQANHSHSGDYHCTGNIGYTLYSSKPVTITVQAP

T3: FcgRIIaR (human, UniProt P12318 34-217)
T3 construct: extracellular domain; Soluble extracellular domain with C-terminal His tag; also called FcγRIIa R; FcγRIIa type R; not shown: His tag attached to the C terminus
T3 sequence (looked up): T1 sequence (looked up) with H134R

B1: GpH7-A48/GpH7-B3-22-10E/GpL16-k0 (antibody, human IgG1, kappa)
heavy 1: QVQLVQSGAEVKKPGASVTVSCKASGYTFTDYEMHWIRQPPGEGLEWIGAIDPKTGDTAYSESFQDRVTLTADKSTSTAYMELSSLTSEDTAVYYCTRFYSYTYWGQGTLVTVSSASTKGPSVFPLAPSSKSTSGGTAALGCLVKDYFPEPVTVSWNSGALTSGVHTFPAVLQSSGLYSLSSVVTVPSSSLGTQTYICNVNHKPSNTKVDKKVEPKSCDKTHTCPPCPAPELLGGPSVFLFPPKPKDTLMISRTPEVTCVVVDVSHEDPEVKFNWYVDGVEVHNAKTKPREEQYNSTYRVVSVLTVLHQDWLNGKEYKCKVSNKALRAPIEKTISKAKGQPREPQVYTLPPSRKELTKNQVSLTCLVKGFYPSDIAVEWESNGQPENNYKTTPPVLDSDGSFFLYSKLTVDKSRWQQGNVFSCSVMHEALHNRYTQKSLSLSP
heavy 2: not shown
light: DIVMTQSPLSLPVTPGEPASISCQASESLVHSNRNTYLHWYLQKPGQSPQLLIYKVSNRFSGVPDRFSGSGSGTDFTLKISRVEAEDVGVYYCSQNTHVPPTFGQGTKVEIERTVAAPSVFIFPPSDEQLKSGTASVVCLLNNFYPREAKVQWKVDNALQSGNSQESVTEQDSKDSTYSLSSTLTLSKADYEKHKVYACEVTHQGLSSPVTKSFNRGEC
notes: Heterodimerized anti-glypican-3 IgG1 variant
B2: H240-Kn120/H240-Hl068/L73-k0 (antibody, human IgG1, kappa)
heavy 1: QDQLVQSGAEVKKPGASVKVSCKASGFNIKDTYIQWVRQAPGQGLEWMGRIDPLRKQTKYREKFEGRVTITADTSTNTAYMELSSLRSEDTAVYYCVRSGREFDYWGQGTLVTVSSASTKGPSVFPLAPSSKSTSGGTAALGCLVKDYFPEPVTVSWNSGALTSGVHTFPAVLQSSGLYSLSSVVTVPSSSLGTQTYICNVNHKPSNTKVDKKVEPKSCDKTHTCPPCPAPEYYWGPMVFLFPPKPKDTLMISRTPEVTCVVVDVSDEDPEVKFNWYVDGVEVHNAKTKPREEQYNATYRVVSVLTVLHQDWLNGKEYKCKVSNKDLPAPIEKTISKAKGQPREPQVCTLPPSRDELTKNQVSLWCLVKGFYPSDIAVEWESNGQPENNYKTTPPVLDSDGSFFLYSKLTVDKSRWQQGNVFSCSVMHEALHNHYTQKSLSLSP
heavy 2: QDQLVQSGAEVKKPGASVKVSCKASGFNIKDTYIQWVRQAPGQGLEWMGRIDPLRKQTKYREKFEGRVTITADTSTNTAYMELSSLRSEDTAVYYCVRSGREFDYWGQGTLVTVSSASTKGPSVFPLAPSSKSTSGGTAALGCLVKDYFPEPVTVSWNSGALTSGVHTFPAVLQSSGLYSLSSVVTVPSSSLGTQTYICNVNHKPSNTKVDKKVEPKSCDKTHTCPPCPAPELLGGPSVFLFPPKPKDTLMISRTPEVTCVVVDVSHEEPEVKFNWYVDGVEVHNAKTKPREEQYNSTYRVVSVLTVLHQDWLNGKEYKCKVSNDALPKPIEETISKAKGQPREPQVYTLPPSRCELTKNQVSLSCAVKGFYPSDIAVEWESNGQPENNYKTTPPVLDSDGSFFLVSKLTVDKSRWQQGNVFSCSVMHEALHNHYTQKSLSLSP
light: DIQMTQSPSSLSASVGDRVTITCRASQDIHKYIAWYQQKPGQAPRLLIQYTSTLQPGVPSRFSGSGSGTDYTFTISSLQPEDIATYYCLQYEQLRTFGGGTKVEIKRTVAAPSVFIFPPSDEQLKSGTASVVCLLNNFYPREAKVQWKVDNALQSGNSQESVTEQDSKDSTYSLSSTLTLSKADYEKHKVYACEVTHQGLSSPVTKSFNRGEC
notes: Heterodimerized anti-epiregulin IgG1 antibody (knobs-into-holes); also called H240-Kn120/H240-HI068/L73-k0
B3: H240-Kn120/H240-Hl170/L73-k0 (antibody, human IgG1, kappa)
heavy 1: B2 heavy 1
heavy 2: B2 heavy 2 with L327A
light: B2 light
notes: Heterodimerized anti-epiregulin IgG1 antibody; L328A introduced into H240-Hl068; also called H240-Kn120/H240-HI170/L73-k0
B4: H240-Kn120/H240-Hl174/L73-k0 (antibody, human IgG1, kappa)
heavy 1: B2 heavy 1
heavy 2: B2 heavy 2 with I331E
light: B2 light
notes: Heterodimerized anti-epiregulin IgG1 antibody; I332E introduced into H240-Hl068; also called H240-Kn120/H240-HI174/L73-k0
B5: H240-Kn120/H240-Hl150/L73-k0 (antibody, human IgG1, kappa)
heavy 1: B2 heavy 1
heavy 2: B2 heavy 2 with I331T
light: B2 light
notes: Heterodimerized anti-epiregulin IgG1 antibody; I332T introduced into H240-Hl068; also called H240-Kn120/H240-HI150/L73-k0

Legend:
[1] = target: T4, FcγRIIIa extracellular domain with C-terminal His tag (human, UniProt P08637 17-208); assay: SPR (Biacore), antibody captured on antigen peptide chip, FcγR as analyte
T4 construct: extracellular domain; also called FcgRIIIa; CD16A
Description: The expression vectors for the respective H chains were combined in a way that each of the alterations L234Y, G236W, S298A, S239D, A330L, and I332E is present in the same H chain as P329R or in the different H chain from P329R, and the expression vector GpL16-k0 for the L chain was combined with them. Antibodies of interest were expressed and prepared according to the method described in Reference Example 1. The prepared antibodies were used to assay the FcγRIIIa-binding activity. The result of assessment using P329R on the direction of FcγRIIIa recognition by L234Y, G236W, S298A, S239D, A330L, and I332E is summarized in Table 12.
Analysis of interaction between objective antibody and the FcγR was carried out using Biacore T100 (GE Healthcare). HBS-EP+ (GE Healthcare) was used as the running buffer, and the measurement temperature was set to 25° C. Chips produced by immobilizing the antigen peptide by the amine coupling method to a Series S Sencor Chip CM5 (GE Healthcare), or alternatively, chips produced by allowing preliminarily biotinylated antigen peptides to interact with and immobilize onto a Series S Sensor Chip SA (certified) (GE Healthcare) were used. Antibodies of interest were captured onto an antigen peptide-immobilized chip, and allowed to interact to each FcγR diluted with running buffer. To regenerate and repeatedly use the chip, the antibodies captured on the chip were washed off by reacting 10 mM glycine-HCl, pH 1.5.

FcgRIIaH [2] = target: T1, FcgRIIaH; assay: SPR (Biacore); KD of H240-Kn120/H240-Hl068/L73-k0 divided by KD of this antibody
Experimental: (§1) Analysis of interaction between obj ective antibody and the FcγR was carried out using Biacore T100 (GE Healthcare), Biacore T200, Biacore A100, and Biacore 4000.

FcgRIa [3] = target: T5, FcgRIa (human, UniProt P12314 16-292); assay: as above
T5 construct: extracellular domain; Soluble extracellular domain with C-terminal His tag, expressed in FreeStyle293 cells; also called FcγRIa; FcγRI; not shown: His tag attached to the C terminus
Experimental: as §1

FcgRIIIaV [4] = target: T6, FcgRIIIaV (human, UniProt P08637 17-208); assay: as above
T6 construct: extracellular domain; Soluble extracellular domain with C-terminal His tag; polymorphic site made after J. Clin. Invest; also called FcγRIIIa V; not shown: His tag attached to the C terminus
Experimental: as §1

FcgRIIb [5] = target: T2, FcgRIIb; assay: as above
Experimental: as §1

FcgRIIIaF [6] = target: T7, FcgRIIIaF (human, UniProt P08637 17-208); assay: as above
T7 construct: extracellular domain; Soluble extracellular domain with C-terminal His tag; polymorphic site made after J. Clin. Invest; also called FcγRIIIa F; not shown: His tag attached to the C terminus
Experimental: as §1

FcgRIIaR [7] = target: T3, FcgRIIaR; assay: as above
Experimental: as §1

FcgRIIaH [8] = target: T1, FcgRIIaH; assay: SPR (Biacore), antibody captured, FcgR as analyte
Experimental: (§2) Analysis of interaction between obj ective antibody and the FcγR was carried out using Biacore T100 (GE Healthcare), Biacore T200, Biacore A100, and Biacore 4000. HBS-EP+ (GE Healthcare) was used as the running buffer, and the measurement temperature was set to 25° C. Chips produced by immobilizing the antigen peptide by the amine coupling method to a Series S sensor Chip CM5 (GE Healthcare), chips produced by allowing preliminarily biotinylated antigen peptides to interact with and immobilize onto a Series S Sensor Chip SA (certified) (GE Healthcare), chips produced by immobilizing Protein L (ACTIGEN, BioVision) to Series S Sencor Chip CM5 (GE Healthcare), or chips produced by immobilizing Protein A/G (Thermo Scientific) to Series S Sencor Chip CM5 (GE Healthcare) were used. Antibodies of interest were captured onto these chips, and allowed to interact to each FcγR diluted with running buffer. To regenerate and repeatedly use the chip, the antibodies captured onto the chip were washed off by reacting 10 mM glycine-HCl, pH 1.5.

FcgRIa [9] = target: T5, FcgRIa; assay: SPR (Biacore), antibody captured, FcgR as analyte
Experimental: as §2

FcgRIIIaV [10] = target: T6, FcgRIIIaV; assay: SPR (Biacore), antibody captured, FcgR as analyte
Experimental: as §2

FcgRIIb [11] = target: T2, FcgRIIb; assay: SPR (Biacore), antibody captured, FcgR as analyte
Experimental: as §2

FcgRIIIaF [12] = target: T7, FcgRIIIaF; assay: SPR (Biacore), antibody captured, FcgR as analyte
Experimental: as §2

FcgRIIaR [13] = target: T3, FcgRIIaR; assay: SPR (Biacore), antibody captured, FcgR as analyte
Experimental: as §2

T7 sequence (P08637 17-208): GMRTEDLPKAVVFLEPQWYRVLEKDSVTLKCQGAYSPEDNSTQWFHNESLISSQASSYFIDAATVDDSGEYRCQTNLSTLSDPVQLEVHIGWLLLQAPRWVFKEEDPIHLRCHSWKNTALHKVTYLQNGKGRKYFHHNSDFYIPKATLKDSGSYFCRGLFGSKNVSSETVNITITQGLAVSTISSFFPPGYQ
T6 sequence (P08637 17-208 F176V limits assumed): as the sequence (P08637 17-208) above, with F160V counted along it
T5 sequence (P12314 16-292): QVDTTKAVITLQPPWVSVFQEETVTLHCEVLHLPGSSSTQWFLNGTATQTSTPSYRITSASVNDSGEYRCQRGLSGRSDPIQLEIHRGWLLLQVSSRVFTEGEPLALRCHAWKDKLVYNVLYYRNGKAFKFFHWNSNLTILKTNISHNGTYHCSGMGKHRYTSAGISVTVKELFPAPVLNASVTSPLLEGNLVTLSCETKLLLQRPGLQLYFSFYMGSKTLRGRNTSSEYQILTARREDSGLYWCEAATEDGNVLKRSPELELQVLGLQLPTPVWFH
T4 sequence (P08637 17-208): as the sequence (P08637 17-208) above

Binder | FcγRIIIa BINDING ACTIVITY (relative) [1] | Relative KD (FcgRIIaH [2]) | Relative KD (FcgRIa [3]) | Relative KD (FcgRIIIaV [4]) | Relative KD (FcgRIIb [5]) | Relative KD (FcgRIIIaF [6]) | Relative KD (FcgRIIaR [7]) | Kd (FcgRIIaH [8]) | Kd (FcgRIa [9]) | Kd (FcgRIIIaV [10]) | Kd (FcgRIIb [11]) | Kd (FcgRIIIaF [12]) | Kd (FcgRIIaR [13])
B1 | 189 relative, GpH7-A5/GpH7-B3/GpL16-k0 = 100 | – | – | – | – | – | – | – | – | – | – | – | –
B2 | – | 1 | 1 | 1 | 1 | 1 | 1 | 41 nM | 0.16 nM | 0.36 nM | 150 nM | 2.2 nM | 20 nM
B3 | – | 2.3 | 0.8 | 0.4 | 2.2 | 0.6 | 2.3 | 18 nM | 0.19 nM | 0.93 nM | 67 nM | 3.9 nM | 8.6 nM
B4 | – | 0.7 | 1.1 | 10 | 1.2 | 4.3 | 0.7 | 55 nM | 0.14 nM | 0.036 nM | 130 nM | 0.51 nM | 30 nM
B5 | – | 1.2 | 0.4 | 0.6 | 1.5 | 0.7 | 1 | 35 nM | 0.39 nM | 0.57 nM | 98 nM | 3 nM | 20 nM

Reference: patent US20180155451A1 (published 2018)
